Test results published in PMC3182237, “Downregulation of the Hsp90 System Causes Defects in Muscle Cells of Caenorhabditis Elegans” (PLoS ONE, 2011).

B1: STI-1, fluorescein-labelled (natural protein, C. elegans, UniProt O16259 1-320, looked up)
chain: MTDAAIAEKDLGNAAYKQKDFEKAHVHYDKAIELDPSNITFYNNKAAVYFEEKKFAECVQFCEKAVEVGRETRADYKLIAKAMSRAGNAFQKQNDLSLAVQWFHRSLSEFRDPELVKKVKELEKQLKAAERLAYINPELAQEEKNKGNEYFKKGDYPTAMRHYNEAVKRDPENAILYSNRAACLTKLMEFQRALDDCDTCIRLDSKFIKGYIRKAACLVAMREWSKAQRAYEDALQVDPSNEEAREGVRNCLRSNDEDPEKAKERSLADPEVQEILRDPGMRMILEQMSNDPGAVREHLKNPEIFQKLMKLRDAGVIQMR
modifications: 5-carboxyfluorescein (N-succinimidyl ester) at lysine residues
notes: STI-1, TPR-containing cofactor of Hsp90 in Caenorhabditis elegans; also called labelled STI-1; source: E. coli BL21-CodonPlus (DE3)-RIL, purified (HisTrap FF, ResourceQ, Superdex SEC); not shown: His tag (from the vector pET28b)
B2: Cep23 (ZC395.10), fluorescein-labelled (natural protein, C. elegans, UniProt Q23280 1-175, looked up)
chain: MAKQPTVLWAQRESLVYLTIEVDEAKIEELKGEGNKLHFQGSSKTDKYEATLEFFDEIDPASVKHTGSSTRVVEITVQKKTPAWWPRLLQNKGKVHWLKVDFGKWKDEDEDDEAEDAGAGIGGGMANGFDLNQYMSQMGGAGGADFGGLEDDEEDDDMPDLEDNEEEEGKNGTRA
modifications: 5-carboxyfluorescein (N-succinimidyl ester) at lysine residues
notes: Cep23, the p23 cofactor of Hsp90 in Caenorhabditis elegans (ZC395.10); also called Labelled Cep23; source: E. coli BL21-CodonPlus (DE3)-RIL, purified (HisTrap FF, ResourceQ, Superdex SEC); not shown: His tag (from the vector pET28b)

What was measured:
Conditions in all cases: both partners purified
E292K-DAF-21 [1] = target: T1, E292K-DAF-21 (C. elegans, UniProt Q18688 1-702, E292K); experiment: AUC; sedimentation velocity with fluorescence detection; fluorescein-labelled cofactor 300 nM, DAF-21 or variant 6 µM; no nucleotide; 20 to 22°C, 42.000 r.p.m.; dc/dt analysis
T1 construct: DAF-21, the Hsp90 homolog of Caenorhabditis elegans, with the point mutation of the allele daf-21(p673); The mutation occurs in the nematode strain JT6130 (daf-21(p673)); The recombinant variant was made from the daf-21 cDNA; also called E292K variant; DAF-21 of daf-21(p673), strain JT6130; source: E. coli BL21-CodonPlus (DE3)-RIL, purified (HisTrap FF, ResourceQ, Superdex SEC); not shown: His …

DAF-21 [2] = target: T2, DAF-21 (C. elegans, UniProt Q18688 1-702); experiment: as above
T2 construct: DAF-21, the Hsp90 homolog of Caenorhabditis elegans; also called Hsp90; wt-DAF-21; source: E. coli BL21-CodonPlus (DE3)-RIL, purified (HisTrap FF, ResourceQ, Superdex SEC); not shown: His tag (from the vector pET28b)

E292K-DAF-21 [3] = target: T1, E292K-DAF-21; experiment: AUC; sedimentation velocity with fluorescence detection; fluorescein-labelled cofactor 300 nM, DAF-21 or variant 6 µM; with 4 mM AMP-PNP; 20 to 22°C, 42.000 r.p.m.; dc/dt analysis
DAF-21 [4] = target: T2, DAF-21; experiment: as above

Row | binding result (E292K-DAF-21 [1]) | binding result (DAF-21 [2]) | binding result (E292K-DAF-21 [3]) | binding result (DAF-21 [4]) | Binder
1 | binds | binds |  |  | B1
2 |  |  | binds | binds | B2
